Results on four molecules are retold here after US20250034601A1 (PURDUE RESEARCH FOUNDATION, published 2025).

Sequences and labels used below:
T1: cEYFP-PhBSβ (PhBSβ tagged at its N-terminus with the C-terminal half of EYFP) (Petunia hybrida)
T1 construct: BiFC construct, transiently expressed in Nicotiana benthamiana leaves; not shown: C-terminal half of enhanced yellow fluorescent protein (cEYFP) of plasmid pCNHP-cYFP-C
T1 chain: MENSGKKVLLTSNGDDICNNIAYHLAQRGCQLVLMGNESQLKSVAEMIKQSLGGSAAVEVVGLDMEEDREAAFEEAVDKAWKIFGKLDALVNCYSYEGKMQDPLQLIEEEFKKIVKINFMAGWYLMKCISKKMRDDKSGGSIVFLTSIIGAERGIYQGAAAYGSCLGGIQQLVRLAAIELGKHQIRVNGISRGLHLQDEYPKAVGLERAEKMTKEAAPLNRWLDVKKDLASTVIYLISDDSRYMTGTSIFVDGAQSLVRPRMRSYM

B1: MBP-tagged AtBSβ (beta subunit of Arabidopsis thaliana benzaldehyde synthase) (enzyme, not shown: large carriers)
chain: MENPAKRVLMTSNGDEVSRNIAFHLAKHGCKLVMMGNEGSLRSIVDKIRDSIEGAFPADVIALDMESDSEVAFHAAVQKAWELSGHFDAFLNSYTYQGKVQDILQVSQDEFHRITKINLTAPWFLLKAVATRMKDHGSGGSIVFMATIASGERALYPGADAYASTSAAIHQLVRASAMSLGKHKIRVNMISRGLHLDDEYTASVGRDRAQKLVKDAAPLGQWLNPDTDLYSTVIYLISDGSRFMTGTTVLVDGAQSLTRPRLKSYM
notes: Purified recombinant subunit from E. coli; CDS amplified from flower cDNA (gene AT3G01980)
B2: MBP-tagged PhBSβ (beta subunit of Petunia hybrida benzaldehyde synthase) (enzyme, not shown: large carriers)
chain: T1 chain
notes: Purified recombinant subunit from E. coli (pMAL-c5X, amylose resin); also called PtBSβ
B3: nEYFP-PhBSα (PhBSα tagged at its N-terminus with the N-terminal half of EYFP) (other)
chain: MEKQTQARFLEPWRDLKGKVVMVTGASSGIGLDLCLDLAKAGCKIIAAARRVDRLKSLCNQINAAADDDDDNNRAVAVELDVSANGDAIEAAVKEAWGAFGRIDALVNNAGVRGTVHSPLELTEEECHNTFRTNLTGTWLVSKYVCKFMRDAKQGGSVINISSIAGLNRGQLPGGLAYVSSKGAVNMVTKVMALELGVDKIRVNSISPGLFKSEITQGLIQKEWLNNVAMRTIPLRTHGNSADPALTSVVRYLIHDSSEYVSGNLFIVDAGATLPGVPIFSSL
notes: BiFC construct, transiently expressed in Nicotiana benthamiana leaves; not shown: N-terminal half of enhanced yellow fluorescent protein (nEYFP) of plasmid pCNHP-nEYFP-C
B4: MBP-PhBSα (maltose binding protein-tagged alpha subunit of Petunia hybrida benzaldehyde synthase) (enzyme, not shown: large carriers)
chain: B3 chain
notes: Coding region amplified from petunia petal cDNA, expressed in E. coli from pMAL-c5X, purified on amylose resin; also called MBP-tagged α-subunit; MBP-PbBSα

Series [1] concerns the target B4. The series can be described thus: size exclusion chromatography (Superdex 200 Increase 10/300 GL), about 1 mg/mL. The protocol: (§1) 500 μL purified protein (˜ 500 μg) were loaded onto a Superdex 200 Increase 10/300 GL size exclusion column and eluted with PBS. The column was calibrated with the following markers: bovine thyroglobulin (670 kDa), bovine gamma globulin (158 kDa), chicken ovalbumin (44 kDa), horse myoglobulin (17 kDa), and vitamin B-12 (1.4 kDa).
Background: In gel filtration, larger molecules generally elute earlier.

Series [2] deals with the molecule itself. The series can be described thus: size exclusion chromatography (Superdex 200 Increase 10/300 GL), about 1 mg/mL; self-association. Here is the method: as §1
Series [3] addresses T1, cEYFP-PhBSβ (PhBSβ tagged at its …). The series can be described thus: bimolecular fluorescence complementation (BiFC) in Nicotiana benthamiana leaves, confocal microscopy.
Experimental: The resulting constructs were used for transient expression in N. benthamiana leaves.
Transformation of constructs into A. tumefaciens and infiltration of cell cultures in tobacco leaves were performed as described above except that the final OD₆₀₀ of the culture was adjusted to 0.6. […] 48 hours after infiltration, the fluorescent signals in the leaves were imaged using a Zeiss LSM-880 laser-scanning confocal microscope (Zeiss, Thornwood, NY, USA).

As for B1, the binding result in series [1] and in series [2] was “binds” throughout.
With B2, in series [2], the binding result was “binds”.
Take B3: in series [3], the binding result is reported as “binds”.
Take B4: the binding result in series [2] was “binds”.
